Measurements as given in IntAct's records for PubMed 20142502.

B1: pre-mRNA splicing regulator USH1G (Homo sapiens), Q495M9 (parent)
chain: MNDQYHRAARDGYLELLKEATRKELNAPDEDGMTPTLWAAYHGNLESLRLIVSRGGDPDKCDIWGNTPLHLAASNGHLHCLSFLVSFGANIWCLDNDYHTPLDMAAMKGHMECVRYLDSIAAKQSSLNPKLVGKLKDKAFREAERRIRECAKLQRRHHERMERRYRRELAERSDTLSFSSLTSSTLSRRLQHLALGSHLPYSQATLHGTARGKTKMQKKLERRKQGGEGTFKVSEDGRKSARSLSGLQLGSDVMFVRQGTYANPKEWGRAPLRDMFLSDEDSVSRATLAAEPAHSEVSTDSGHDSLFTRPGLGTMVFRRNYLSSGLHGLGREDGGLDGVGAPRGRLQSSPSLDDDSLGSANSLQDRSCGEELPWDELDLGLDEDLEPETSPLETFLASLHMEDFAALLRQEKIDLEALMLCSDLDLRSISVPLGPRKKILGAVRRRRQAMERPPALEDTEL
partner: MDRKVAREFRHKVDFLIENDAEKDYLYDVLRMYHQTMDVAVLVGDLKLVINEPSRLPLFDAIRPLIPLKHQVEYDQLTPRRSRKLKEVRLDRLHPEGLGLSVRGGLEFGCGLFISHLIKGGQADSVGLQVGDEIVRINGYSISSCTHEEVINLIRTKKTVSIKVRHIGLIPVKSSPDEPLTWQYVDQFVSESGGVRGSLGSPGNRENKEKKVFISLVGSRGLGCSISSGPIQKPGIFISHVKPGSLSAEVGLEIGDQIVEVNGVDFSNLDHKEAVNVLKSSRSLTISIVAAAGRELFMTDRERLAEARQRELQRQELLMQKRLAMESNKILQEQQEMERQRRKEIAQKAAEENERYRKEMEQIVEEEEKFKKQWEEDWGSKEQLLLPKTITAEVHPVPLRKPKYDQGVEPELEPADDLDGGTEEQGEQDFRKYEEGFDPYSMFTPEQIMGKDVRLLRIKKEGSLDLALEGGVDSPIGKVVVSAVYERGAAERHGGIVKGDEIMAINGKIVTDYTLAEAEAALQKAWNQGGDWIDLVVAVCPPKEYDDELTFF
B2: Harmonin (Homo sapiens), Q9Y6N9 (parent)
chain: B1 partner
partner: B1 chain

Variants of: B1
Conditions: with ush1c_human USH1C, Q9Y6N9

Row | effect of a mutation on the interaction | Variant
1 | decreasing interaction | D458V

Variants of: B2
Conditions: with ush1g_human USH1G, Q495M9

Row | effect of a mutation on the interaction | Variant
2 | decreasing interaction | R103H
